T1: human BMPR-II extracellular domain (human, UniProt Q13873 32-150, biotinylated at a 1:1 molar stoichiometric ratio using Sulfo-NHS-LC-biotin)
T1 sequence: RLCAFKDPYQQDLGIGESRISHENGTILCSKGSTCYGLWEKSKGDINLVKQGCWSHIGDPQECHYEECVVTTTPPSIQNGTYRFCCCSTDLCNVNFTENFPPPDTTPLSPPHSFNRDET

T2: Noggin (UniProt Q13253 28-232, biotinylated)
T2 sequence: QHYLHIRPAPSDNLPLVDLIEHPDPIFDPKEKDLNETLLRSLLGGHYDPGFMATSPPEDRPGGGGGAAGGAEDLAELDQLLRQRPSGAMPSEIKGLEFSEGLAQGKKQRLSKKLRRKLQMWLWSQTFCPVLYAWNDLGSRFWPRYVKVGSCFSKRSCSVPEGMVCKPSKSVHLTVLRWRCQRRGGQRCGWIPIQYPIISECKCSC

B1: BMP9 HB (ligand)
chain: MAQAHKHQRKRLKSSCQKTSLRVNFEDIGWDSWIIAPKEYEAYECKGGCFFPLADDVTPTKHAIVQTLVHLKFPTKVGKACCVPTKLSPISVLYKDDMGVPTLKYHYEGMSVAECGCR
B2: BMP9 WT (ligand)
chain: SAGAGSHCQKTSLRVNFEDIGWDSWIIAPKEYEAYECKGGCFFPLADDVTPTKHAIVQTLVHLKFPTKVGKACCVPTKLSPISVLYKDDMGVPTLKYHYEGMSVAECGCR
B3: BMP2 WT (ligand)
chain: QAKHKQRKRLKSSCKRHPLYVDFSDVGWNDWIVAPPGYHAFYCHGECPFPLADHLNSTNHAIVQTLVNSVNSKIPKACCVPTELSAISMLYLDENEKVVLKNYQDMVVEGCGCR

How the values were obtained:
Test in all cases: SPR
[1] = molecular target: T1, human BMPR-II extracellular domain
[2] = molecular target: human ALK1 extracellular domain (human, UniProt P37023 22-118, biotinylated at a 1:1 molar stoichiometric ratio using Sulfo-NHS-LC-biotin)
Noggin = molecular target: T2, Noggin

Sequence of human ALK1 extracellular domain (P37023 22-118): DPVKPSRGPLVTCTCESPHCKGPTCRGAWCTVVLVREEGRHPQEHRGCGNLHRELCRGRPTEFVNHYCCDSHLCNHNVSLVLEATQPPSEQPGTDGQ

Binder | Kd [1] [nM] | Kd [2] [nM] | Kd (Noggin) [nM]
B1 | 11.6 | 5.59 | 
B2 | 13.3 |  | 
B3 | 66.9 |  | 1.2

Reference: PMC10371762 (Bioactive Materials, 2023)
